Among the data in publication doi:10.1101/2025.06.08.658476 are T-crosslink intensity relative to WT TycA, L-crosslink intensity relative to WT TycA and D-Phe-L-Pro-DKP production with TycB1, normalised to wild-type TycA values, retold here.

Assay [1] deals with TycB1(S5Bpa)-His6, TycB1[COM^A-C-A-PCP] with p-benzoylphenylalanine at Ser5 (construct 25), holo-form. Briefly: cross-linking.
In assay [2] the target is TycB1-His6, TycB1[COM^A-C-A-PCP] (construct 17), holo-form.

“SBP-TycA P1063A, mutation in the lid (construct 24), holo-form (enzyme)” displayed a T-crosslink intensity relative to WT TycA in assay [1] of 46%. On the same count and under the same terms, under “SBP-TycA with the single V1059 in the seam region deleted (construct 23), holo-form (enzyme)” stands 33%.

In assay [1], “SBP-TycA ΔV1059 to K1069, seam and lid deletion mutant (construct 19), holo-form (enzyme)” returned a L-crosslink intensity relative to WT TycA of 38% and a T-crosslink intensity relative to WT TycA of 5%. The substance further came in with a D-Phe-L-Pro-DKP production with TycB1, normalised to wild-type TycA in assay [2] of 9%.
